Data published in patent US20210087286A1 (Amgen, published 2021).
Changes are numbered by the printed parent chain.

T1: human GIPR (human, UniProt P48546 22-466)
T1 sequence: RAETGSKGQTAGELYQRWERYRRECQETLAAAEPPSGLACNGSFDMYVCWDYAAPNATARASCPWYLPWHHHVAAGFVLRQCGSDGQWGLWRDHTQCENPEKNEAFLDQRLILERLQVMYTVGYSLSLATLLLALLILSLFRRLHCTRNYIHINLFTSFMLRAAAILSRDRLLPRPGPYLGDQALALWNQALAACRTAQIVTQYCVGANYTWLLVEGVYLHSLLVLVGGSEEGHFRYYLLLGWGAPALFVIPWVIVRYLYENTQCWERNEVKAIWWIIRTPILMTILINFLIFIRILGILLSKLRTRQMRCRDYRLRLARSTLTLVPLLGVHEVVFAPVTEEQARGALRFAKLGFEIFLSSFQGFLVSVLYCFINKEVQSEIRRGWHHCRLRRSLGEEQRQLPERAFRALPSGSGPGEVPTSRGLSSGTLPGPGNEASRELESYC

T2: murine GIPR (murine, UniProt Q0P543 19-460, limits assumed)
T2 sequence: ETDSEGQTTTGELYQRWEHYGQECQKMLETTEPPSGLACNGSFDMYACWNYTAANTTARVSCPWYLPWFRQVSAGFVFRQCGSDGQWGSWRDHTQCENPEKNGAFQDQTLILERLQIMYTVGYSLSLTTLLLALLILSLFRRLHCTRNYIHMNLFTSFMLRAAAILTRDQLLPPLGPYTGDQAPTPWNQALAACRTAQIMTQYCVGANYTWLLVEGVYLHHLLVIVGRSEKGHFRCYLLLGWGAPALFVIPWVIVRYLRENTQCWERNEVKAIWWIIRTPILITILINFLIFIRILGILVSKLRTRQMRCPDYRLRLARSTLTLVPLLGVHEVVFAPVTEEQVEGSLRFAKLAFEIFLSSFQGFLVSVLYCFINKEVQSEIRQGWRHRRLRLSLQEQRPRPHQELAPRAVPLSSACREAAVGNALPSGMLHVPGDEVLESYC

T3: huGIPR ECD (human, UniProt P48546 21-129, limits assumed)
T3 construct: Soluble analyte of the Biacore assay; also called human GIPR extracellular domain
T3 sequence: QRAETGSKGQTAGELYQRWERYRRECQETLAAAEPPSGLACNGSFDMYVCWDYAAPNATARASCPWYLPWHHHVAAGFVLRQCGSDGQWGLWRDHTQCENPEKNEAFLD

B1: 2G10.347 (antibody, human IgG1, kappa, N297G, V domains shown)
VH: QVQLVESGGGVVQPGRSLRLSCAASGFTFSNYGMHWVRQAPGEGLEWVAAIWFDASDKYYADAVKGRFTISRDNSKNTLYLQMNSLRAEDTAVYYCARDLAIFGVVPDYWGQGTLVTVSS
VL: EIVMTQSPATLSVSPGERATLSCRASQSVSSNLAWYQQKPGQAPRLLIYGAATRATGIPARFSGSGSGTEFTLTISSLQSEDFAVYYCQQYNNWPLTFGGGTKVEIKR
B2: 2G10.607 (antibody, human IgG1, kappa, N297G, V domains shown)
VH: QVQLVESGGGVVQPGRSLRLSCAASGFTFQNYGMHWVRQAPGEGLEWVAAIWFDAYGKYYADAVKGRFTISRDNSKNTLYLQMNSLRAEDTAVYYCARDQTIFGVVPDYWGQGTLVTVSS
VL: B1 VL with S30D, S31R, N32H, G50E, F62V, N93Q
notes: also called SS-26232
B3: 2G10.606 (antibody, human IgG1, kappa, N297G, V domains shown)
VH: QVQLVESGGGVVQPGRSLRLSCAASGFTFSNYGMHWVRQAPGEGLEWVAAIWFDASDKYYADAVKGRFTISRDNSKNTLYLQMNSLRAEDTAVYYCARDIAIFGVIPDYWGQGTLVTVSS
VL: B1 VL with S30L, S31T, N32H, G50E, F62V, N92Q
notes: also called SS-26231
B4: 2G10.609 (antibody, human IgG1, kappa, N297G, V domains shown)
VH: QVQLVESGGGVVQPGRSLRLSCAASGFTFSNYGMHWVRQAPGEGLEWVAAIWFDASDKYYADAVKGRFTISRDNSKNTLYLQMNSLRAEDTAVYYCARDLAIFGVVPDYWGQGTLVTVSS
VL: B1 VL with S30E, S31R, N32H, G50E, F62V, N92Q
notes: also called SS-26234
B5: 2G10.604 (antibody, human IgG1, kappa, N297G, V domains shown)
VH: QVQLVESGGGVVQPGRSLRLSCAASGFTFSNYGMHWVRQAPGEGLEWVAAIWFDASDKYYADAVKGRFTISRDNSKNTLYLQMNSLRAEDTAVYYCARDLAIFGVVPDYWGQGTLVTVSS
VL: B1 VL with S30N, S31R, N32H, G50E, F62V, N92Q
notes: also called SS-26229
B6: 2G10.603 (antibody, human IgG1, kappa, N297G, V domains shown)
VH: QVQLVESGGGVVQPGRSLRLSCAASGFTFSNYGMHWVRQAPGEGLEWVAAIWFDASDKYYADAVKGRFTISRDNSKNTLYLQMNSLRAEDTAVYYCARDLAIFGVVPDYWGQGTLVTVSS
VL: B1 VL with S30D, S31R, N32H, G50E, F62V, N92Q
notes: also called SS-26228
B7: 2G10.348 (antibody, human IgG1, kappa, N297G, V domains shown)
VH: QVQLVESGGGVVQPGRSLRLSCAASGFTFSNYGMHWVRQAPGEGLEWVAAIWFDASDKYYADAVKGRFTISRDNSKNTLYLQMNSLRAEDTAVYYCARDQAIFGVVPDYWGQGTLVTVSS
VL: B1 VL
B8: 2G10.602 (antibody, human IgG1, kappa, N297G, V domains shown)
VH: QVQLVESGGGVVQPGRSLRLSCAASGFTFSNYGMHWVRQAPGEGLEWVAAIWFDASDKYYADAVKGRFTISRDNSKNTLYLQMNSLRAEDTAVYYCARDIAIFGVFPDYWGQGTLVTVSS
VL: B1 VL with S30F, S31E, N32H, G50E, F62V
notes: also called SS-26227
B9: 2G10.610 (antibody, human IgG1, kappa, N297G, V domains shown)
VH: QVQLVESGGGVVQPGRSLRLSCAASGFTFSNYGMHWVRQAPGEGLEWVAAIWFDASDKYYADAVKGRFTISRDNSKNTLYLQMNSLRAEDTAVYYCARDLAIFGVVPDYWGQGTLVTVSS
VL: B1 VL with S30F, S31T, N32H, G50E, F62V
notes: also called SS-26235
B10: 2G10.605 (antibody, human IgG1, kappa, N297G, V domains shown)
VH: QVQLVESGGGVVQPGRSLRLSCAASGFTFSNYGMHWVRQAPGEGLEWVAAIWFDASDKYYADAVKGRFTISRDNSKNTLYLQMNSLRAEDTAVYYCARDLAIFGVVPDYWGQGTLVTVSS
VL: B1 VL with S30D, S31V, G50N, F62V, N92Q
notes: also called SS-26230
B11: 2G10.601 (antibody, human IgG1, kappa, N297G, V domains shown)
VH: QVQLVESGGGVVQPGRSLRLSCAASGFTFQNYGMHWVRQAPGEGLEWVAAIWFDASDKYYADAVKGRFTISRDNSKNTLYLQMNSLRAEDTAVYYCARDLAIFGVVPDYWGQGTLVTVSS
VL: B1 VL with S30F, N32H, G50E, F62V, N92Q
notes: also called SS-26226
B12: 2G10.608 (antibody, human IgG1, kappa, N297G, V domains shown)
VH: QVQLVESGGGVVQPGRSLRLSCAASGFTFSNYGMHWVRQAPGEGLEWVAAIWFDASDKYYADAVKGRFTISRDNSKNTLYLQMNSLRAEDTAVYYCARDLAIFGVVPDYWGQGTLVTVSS
VL: B1 VL with S30F, N32H, G50E, F62V, N92Q, N93Q
notes: also called SS-26233
B13: iPS:529397 (antibody, human IgG1, kappa, N297G, V domains shown)
VH: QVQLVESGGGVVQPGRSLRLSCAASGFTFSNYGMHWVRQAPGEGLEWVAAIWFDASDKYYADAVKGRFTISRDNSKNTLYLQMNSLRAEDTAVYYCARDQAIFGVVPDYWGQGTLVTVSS
VL: B1 VL with M4L, V13L, A60D, S77R, Q79E, S80P
B14: iPS:529399 (antibody, human IgG1, kappa, N297G, V domains shown)
VH: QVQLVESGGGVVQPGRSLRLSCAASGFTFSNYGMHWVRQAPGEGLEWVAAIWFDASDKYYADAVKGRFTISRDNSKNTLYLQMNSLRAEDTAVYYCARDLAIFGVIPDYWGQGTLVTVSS
VL: B1 VL with M4L, V13L, S31E, N32H, G50E, A60D, S77R, Q79E, S80P, N92Q
B15: iPS:529400 (antibody, human IgG1, kappa, N297G, V domains shown)
VH: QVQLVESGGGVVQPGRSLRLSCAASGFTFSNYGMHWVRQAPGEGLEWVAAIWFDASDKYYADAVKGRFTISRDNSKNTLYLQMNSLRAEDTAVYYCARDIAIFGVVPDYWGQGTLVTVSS
VL: B1 VL with M4L, V13L, A60D, S77R, Q79E, S80P
B16: iPS:529404 (antibody, human IgG1, kappa, N297G, V domains shown)
VH: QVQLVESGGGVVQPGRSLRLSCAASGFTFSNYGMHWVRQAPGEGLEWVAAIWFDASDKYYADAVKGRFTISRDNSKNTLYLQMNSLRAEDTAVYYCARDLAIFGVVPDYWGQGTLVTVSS
VL: B1 VL with M4L, V13L, S30N, S31L, G50Q, A60D, S77R, Q79E, S80P, N93Q
B17: iPS:529405 (antibody, human IgG1, kappa, N297G, V domains shown)
VH: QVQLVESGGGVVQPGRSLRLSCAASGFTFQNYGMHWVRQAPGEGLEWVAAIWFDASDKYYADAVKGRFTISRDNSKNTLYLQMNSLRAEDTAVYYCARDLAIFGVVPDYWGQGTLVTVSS
VL: B1 VL with M4L, V13L, S30F, N32H, G50E, A60D, S77R, Q79E, S80P, N92Q
B18: iPS:529403 (antibody, human IgG1, kappa, N297G, V domains shown)
VH: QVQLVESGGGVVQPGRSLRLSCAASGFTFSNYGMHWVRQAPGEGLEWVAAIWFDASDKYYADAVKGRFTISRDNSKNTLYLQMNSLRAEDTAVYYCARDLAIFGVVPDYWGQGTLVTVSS
VL: EIVLTQSPATLSLSPGERATLSCRASQSVDLHLAWYQQKPGQAPRLLIYEAATRATGIPDRFSGSGSGTEFTLTISRLEPEDFAVYYCQQYQNWPLTFGGGTKVEIKR

These binders were tested against T1, human GIPR (assay: cell-based or functional assay).

| cAMP IC50 | Binder |
| --- | --- |
| 28.4 nM | B1 |
| 19.4 nM | B2 |
| 20.4 nM | B3 |
| 26.9 nM | B4 |
| 27.1 nM | B5 |
| 30.5 nM | B6 |
| 42.8 nM | B7 |
| 16.8 nM | B8 |
| 12.9 nM | B9 |
| 25.6 nM | B10 |
| 21.4 nM | B11 |
| 21.7 nM | B12 |

Molecular target: T1, human GIPR
Assay: cell-based or functional assay
Remark: another data set of the same source

| human cAMP IC50 | Binder |
| --- | --- |
| 50 nM | B13 |
| 39.3 nM | B14 |
| 36.6 nM | B15 |
| 27.8 nM | B16 |
| 22.7 nM | B17 |
| 53 nM | B7 |
| 33.9 nM | B18 |

The binders below were run against T2, murine GIPR (assay: cell-based or functional assay).

| murine cAMP | Binder |
| --- | --- |
| 108 nM | B13 |
| 12.9 nM | B14 |
| 79.5 nM | B15 |
| 3.9 nM | B16 |
| 6.1 nM | B17 |
| 14600 nM | B7 |
| 12 nM | B18 |

What follows are binders tested against T3, huGIPR ECD (assay: SPR (Biacore T200), mAb captured via goat anti-huFc, 200 nM huGIPR ECD analyte).
Protocol: Immobilization of Goat-anti-huFc antibody to a S-CM5 sensor chip surface was performed according to manufacturer's instructions. The Biacore instrument running buffer is 0.005% P20/PBS 1×, pH7.4, no calcium chloride, no magnesium chloride. Briefly, carboxyl groups on the sensor chip surfaces were activated by injecting 60 μL of a mixture containing 0.2 M N-ethyl-N′-(dimethylaminopropyl) carbodiimide (EDC) and 0.05 M N-hydroxysuccinimide (NHS). Goat-anti-huFc antibody was diluted in 10 mM sodium acetate, pH 4.0 at 20 μg/ml and injected over the activated chip surface at 30 uL/min for 6 minutes. Excess reactive groups on the surfaces were deactivated by injecting 60 μL of 1 M ethanolamine. Final immobilized level was ˜8000 resonance units (RU).
Binding assays were carried out on the immobilized goat anti-huFc antibody surface by Biacore T200. The experiment was performed at 25° C. The instrument running buffer was 0.005% P20/PBS. The goat anti-huFc capture antibody was covalently attached to the sensor chip surface via standard amine coupling to flow cells channel 1-4. The anti-huGIPR antibodies were diluted in sample buffer (0.1 mg/ml BSA, 0.005% P20, PBS) to ˜10 nM then captured to flow cells channel 2, 3, 4. Flow cell channel 1 was as a blank reference surface without injection of anti-huGIPR antibody. The captured antibody response range was ˜250 RU. Then 200 nM huGIPR ECD was injected over the goat anti-huFc antibody captured anti-huGIPR antibody surfaces at flow rate 50 ul/min for 3 minutes. After a 10 minutes dissociation, each surface was regenerated by injecting 10 mM Glycine, pH 1.5 for 30 seconds twice.

| koff | Binder |
| --- | --- |
| 0.0001 s⁻¹ | B1 |
| 6e-05 s⁻¹ | B2 |
| < 5e-05 s⁻¹ | B3 |
| 6e-05 s⁻¹ | B4 |
| < 5e-05 s⁻¹ | B5 |
| < 5e-05 s⁻¹ | B6 |
| 0.0006 s⁻¹ | B7 |
| < 5e-05 s⁻¹ | B8 |
| < 5e-05 s⁻¹ | B9 |
| 7e-05 s⁻¹ | B10 |
| 6e-05 s⁻¹ | B11 |
| < 5e-05 s⁻¹ | B12 |
